Laboratory results reported in paper doi:10.1101/2023.12.15.571945.

Target: GFP-Rab13-2 (N. benthamiana)
Test: co-IP

Substance “REP-3xFLAG (Rab escort protein 1) (natural protein)” has a level of binding (α-FLAG/α-GFP) with RFP-Pc12 expressed of 1.3.
